Source: patent US9803012B2, “Compositions and methods for regulating SAS1R” (UNIVERSITY OF VIRGINIA PATENT FOUNDATION, priority 2005, dated 2017)

Experiments:
Type in all cases: cell-based
mouse sperm-egg fusion = assay: Mouse sperm-egg fusion with recombinant mouse SLLP2; conditions: 100 or 200 μg/ml, relative to BSA and PBS controls
Protocol: Next, it was determined whether recombinant mouse SLLP2 could inhibit mouse sperm-egg fusion. In groups treated with recombinant mouse SLLP2 the number of sperm fused per egg was reduced to about 0.1 sperm fused per egg, at concentrations of 100 or 200 μg/ml recombinant mouse SLLP2, relative to BSA and PBS control treatments.

mouse eggs [1] = assay: Fertilization of mouse eggs with mouse sperm with recombinant mouse SLLP2
Protocol: Recombinant mouse SLLP2 at concentrations of 25, 50, 100, and 200 μg/ml was incubated with sperm and egg, and compared to BSA and PBS controls as described above. It can be seen that fertilization occurred at a rate of about 75% in the BSA and PBS controls groups. […] Also provided are comparisons of human SLLP2 to other mammalian sequences, and well as a comparison indicating the conservation of SLLP2 ortholog in dogs.

mouse eggs [2] = assay: Binding of SLLP2 to mouse eggs
Protocol: To analyze the biologic activity of human SLLP2, it was determined whether it would bind to an egg, in this case, a mouse egg.
(§1) For comparison to the use of human sperm SLLP2, an experiment was performed to determine if purified mouse SLLP2 would bind to Zona intact mouse eggs. […] Competitive assays were then performed to determine whether the addition of recombinant mouse SLLP2 to a mixture of mouse sperm and mouse eggs could inhibit binding of sperm and eggs. Various amounts of recombinant mouse SLLP2 were added (5, 25, 50, 100, and 200 μg/ml) and the number of sperm bound per egg was determined.

[3] = test system: mouse sperm and mouse eggs; assay: Competitive assay of sperm-egg binding with recombinant mouse SLLP2; conditions: 5, 25, 50, 100 and 200 μg/ml, relative to BSA (200 μg/ml) or PBS controls
Protocol: as §1

binding to Zona-free mouse eggs (mouse eggs [2]; mouse SLLP2): would bind to Zona-free mouse eggs
binding to Zona intact mouse eggs (mouse eggs [2]; purified mouse SLLP2): does indeed bind to mouse eggs
B1: recombinant mouse SLLP2: purified recombinant mouse sperm lysozyme-like protein 2 (mature protein SEQ ID NO:16) (protein, listed as Mus musculus)
chain: KIYERCELAKKLEEAGLDGFKGYTVGDWLCVAHYESGFDTSFVDHNPDGSSEYGIFQLNSAWWCNNGITPTQNLCNIDCNDLLNRHILDDIICAKRVASSHKSMKAWDSWTQHCAGHDLSEWLKGCSVRLKTDSSYNNW
number of sperm fused per egg (mouse sperm-egg fusion): about 0.1 sperm fused per egg
inhibition of fertilization (mouse eggs [1]; 200 μg/ml): nearly totally inhibiting fertilization
inhibition of fertilization (mouse eggs [1]; 25, 50, 100 and 200 μg/ml, vs BSA and PBS controls): inhibited fertilization in a dose-dependent fashion
number of sperm bound per egg [3]: able to reduce the amount of binding occurring between sperm and egg
